# PMC10397247
# T1: 4H1081-bH
# T1 chain: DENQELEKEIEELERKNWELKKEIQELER
# T2: 4H112-bH
# T2 chain: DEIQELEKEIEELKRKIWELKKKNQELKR
# T3: 4H1158-bH
# T3 chain: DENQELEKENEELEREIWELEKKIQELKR
# T4: 4H118-bH
# T4 chain: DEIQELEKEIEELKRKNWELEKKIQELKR
# T5: 4H1348-bH
# T5 chain: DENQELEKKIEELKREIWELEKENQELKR
# T6: 4H1373-bH
# T6 chain: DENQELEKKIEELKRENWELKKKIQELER
# T7: 4H1544-bH
# T7 chain: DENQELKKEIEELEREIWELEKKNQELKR
# T8: 4H170-bH
# T8 chain: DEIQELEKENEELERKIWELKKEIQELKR
# T9: 4H1710-bH
# T9 chain: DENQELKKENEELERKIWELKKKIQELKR
# T10: 4H1831-bH
# T10 chain: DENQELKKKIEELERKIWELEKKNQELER
# T11: 4H1899-bH
# T11 chain: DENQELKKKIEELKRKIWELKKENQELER
# T12: 4H1985-bH
# T12 chain: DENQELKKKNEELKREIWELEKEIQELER
# T13: 4H2586-bH
# T13 chain: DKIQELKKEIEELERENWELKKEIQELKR
# T14: 4H2627-bA
# T14 chain: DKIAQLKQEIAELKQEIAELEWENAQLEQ
# T15: 4H2627-bH
# T15 chain: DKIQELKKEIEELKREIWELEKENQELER
# T16: 4H2673-bH
# T16 chain: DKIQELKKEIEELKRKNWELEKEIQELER
# T17: 4H2702-bH
# T17 chain: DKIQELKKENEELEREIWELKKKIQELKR
# T18: 4H2717-bA
# T18 chain: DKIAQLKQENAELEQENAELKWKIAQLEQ
# T19: 4H3010-bH
# T19 chain: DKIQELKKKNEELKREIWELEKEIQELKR
# T20: 4H3112-bH
# T20 chain: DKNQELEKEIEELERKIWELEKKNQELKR
# T21: 4H3162-bH
# T21 chain: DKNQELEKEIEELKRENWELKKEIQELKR
# T22: 4H3175-bH
# T22 chain: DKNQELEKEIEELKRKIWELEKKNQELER
# T23: 4H3277-bH
# T23 chain: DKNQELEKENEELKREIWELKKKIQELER
# T24: 4H3298-bH
# T24 chain: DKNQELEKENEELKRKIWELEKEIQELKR
# T25: 4H3427-bH
# T25 chain: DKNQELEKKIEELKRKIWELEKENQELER
# T26: 4H346-bH
# T26 chain: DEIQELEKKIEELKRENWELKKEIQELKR
# T27: 4H3462-bH
# T27 chain: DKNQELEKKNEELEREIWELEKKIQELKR
# T28: 4H3497-bH
# T28 chain: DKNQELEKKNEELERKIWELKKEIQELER
# T29: 4H3613-bH
# T29 chain: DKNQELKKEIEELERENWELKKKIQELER
# T30: 4H3628-bH
# T30 chain: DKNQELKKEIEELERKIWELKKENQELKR
# T31: 4H3926-bH
# T31 chain: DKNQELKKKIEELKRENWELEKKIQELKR
# T32: 4H4073-bH
# T32 chain: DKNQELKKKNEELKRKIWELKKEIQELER
# T33: 4H457-bH
# T33 chain: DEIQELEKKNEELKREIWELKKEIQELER
# T34: 4H575-bH
# T34 chain: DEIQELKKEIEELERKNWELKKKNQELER
# T35: 4H591-bH
# T35 chain: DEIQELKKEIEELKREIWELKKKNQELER
# T36: 4H626-bH
# T36 chain: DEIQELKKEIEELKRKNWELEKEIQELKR
# T37: 4H683-bH
# T37 chain: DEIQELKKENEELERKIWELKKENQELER
# T38: 4H754-bH
# T38 chain: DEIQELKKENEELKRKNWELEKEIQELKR
# T39: 4H780-bH
# T39 chain: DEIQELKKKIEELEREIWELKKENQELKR
# T40: 4H797-bH
# T40 chain: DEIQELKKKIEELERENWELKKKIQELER
# T41: 4H855-bH
# T41 chain: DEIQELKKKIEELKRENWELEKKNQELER
# T42: 4H906-bH
# T42 chain: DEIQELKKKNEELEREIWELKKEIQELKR
# T43: 4H918-bH
# T43 chain: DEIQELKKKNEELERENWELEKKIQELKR
# T44: 4H953-bH
# T44 chain: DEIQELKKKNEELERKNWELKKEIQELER
# T45: 4H953-bN
# T45 chain: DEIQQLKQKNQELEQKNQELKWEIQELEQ
# T46: 4H968-bH
# T46 chain: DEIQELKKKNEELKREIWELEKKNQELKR
# T47: O6-bS
# T47 chain: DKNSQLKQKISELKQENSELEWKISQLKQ
# T48: Core_IIII-es_KEKE
# T48 chain: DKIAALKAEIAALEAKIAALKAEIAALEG
# T49: Core_INNN-es_KEEK
# T49 chain: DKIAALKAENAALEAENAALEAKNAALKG
# Key:
# 4H1081-bH = molecular target: T1, 4H1081-bH; assay: two-hybrid library CCNG1; conditions: mean of both orientations;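 further: natural log of median RNA to DNA barcode read ratio; higher means stronger binding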
# 4H112-bH = molecular target: T2, 4H112-bH; assay: two-hybrid library CCNG1;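 further: natural log of median RNA to DNA barcode read ratio; higher means stronger binding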
# 4H1158-bH = molecular target: T3, 4H1158-bH; assay: two-hybrid library CCNG1;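 further: natural log of median RNA to DNA barcode read ratio; higher means stronger binding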
# 4H118-bH = molecular target: T4, 4H118-bH; assay: two-hybrid library CCNG1;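 further: natural log of median RNA to DNA barcode read ratio; higher means stronger binding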
# 4H1348-bH = molecular target: T5, 4H1348-bH; assay: two-hybrid library CCNG1
# 4H1373-bH = molecular target: T6, 4H1373-bH; assay: two-hybrid library CCNG1
# 4H1544-bH = molecular target: T7, 4H1544-bH; assay: two-hybrid library CCNG1
# 4H170-bH = molecular target: T8, 4H170-bH; assay: two-hybrid library CCNG1
# 4H1710-bH = molecular target: T9, 4H1710-bH; assay: two-hybrid library CCNG1
# 4H1831-bH = molecular target: T10, 4H1831-bH; assay: two-hybrid library CCNG1
# 4H1899-bH = molecular target: T11, 4H1899-bH; assay: two-hybrid library CCNG1
# 4H1985-bH = molecular target: T12, 4H1985-bH; assay: two-hybrid library CCNG1
# 4H2586-bH = molecular target: T13, 4H2586-bH; assay: two-hybrid library CCNG1
# 4H2627-bA = molecular target: T14, 4H2627-bA; assay: two-hybrid library CCNG1
# 4H2627-bH = molecular target: T15, 4H2627-bH; assay: two-hybrid library CCNG1
# 4H2673-bH = molecular target: T16, 4H2673-bH; assay: two-hybrid library CCNG1
# 4H2702-bH = molecular target: T17, 4H2702-bH; assay: two-hybrid library CCNG1
# 4H2717-bA = molecular target: T18, 4H2717-bA; assay: two-hybrid library CCNG1
# 4H3010-bH = molecular target: T19, 4H3010-bH; assay: two-hybrid library CCNG1
# 4H3112-bH = molecular target: T20, 4H3112-bH; assay: two-hybrid library CCNG1
# 4H3162-bH = molecular target: T21, 4H3162-bH; assay: two-hybrid library CCNG1
# 4H3175-bH = molecular target: T22, 4H3175-bH; assay: two-hybrid library CCNG1
# 4H3277-bH = molecular target: T23, 4H3277-bH; assay: two-hybrid library CCNG1
# 4H3298-bH = molecular target: T24, 4H3298-bH; assay: two-hybrid library CCNG1
# 4H3427-bH = molecular target: T25, 4H3427-bH; assay: two-hybrid library CCNG1
# 4H346-bH = molecular target: T26, 4H346-bH; assay: two-hybrid library CCNG1
# 4H3462-bH = molecular target: T27, 4H3462-bH; assay: two-hybrid library CCNG1
# 4H3497-bH = molecular target: T28, 4H3497-bH; assay: two-hybrid library CCNG1
# 4H3613-bH = molecular target: T29, 4H3613-bH; assay: two-hybrid library CCNG1
# 4H3628-bH = molecular target: T30, 4H3628-bH; assay: two-hybrid library CCNG1
# 4H3926-bH = molecular target: T31, 4H3926-bH; assay: two-hybrid library CCNG1; conditions: mean of both orientations
# 4H4073-bH = molecular target: T32, 4H4073-bH; assay: two-hybrid library CCNG1
# 4H457-bH = molecular target: T33, 4H457-bH; assay: two-hybrid library CCNG1
# 4H575-bH = molecular target: T34, 4H575-bH; assay: two-hybrid library CCNG1
# 4H591-bH = molecular target: T35, 4H591-bH; assay: two-hybrid library CCNG1
# 4H626-bH = molecular target: T36, 4H626-bH; assay: two-hybrid library CCNG1
# 4H683-bH = molecular target: T37, 4H683-bH; assay: two-hybrid library CCNG1
# 4H754-bH = molecular target: T38, 4H754-bH; assay: two-hybrid library CCNG1
# 4H780-bH = molecular target: T39, 4H780-bH; assay: two-hybrid library CCNG1
# 4H797-bH = molecular target: T40, 4H797-bH; assay: two-hybrid library CCNG1
# 4H855-bH = molecular target: T41, 4H855-bH; assay: two-hybrid library CCNG1
# 4H906-bH = molecular target: T42, 4H906-bH; assay: two-hybrid library CCNG1
# 4H918-bH = molecular target: T43, 4H918-bH; assay: two-hybrid library CCNG1
# 4H953-bH = molecular target: T44, 4H953-bH; assay: two-hybrid library CCNG1
# 4H953-bN = molecular target: T45, 4H953-bN; assay: two-hybrid library CCNG1
# 4H968-bH = molecular target: T46, 4H968-bH; assay: two-hybrid library CCNG1
# O6-bS = molecular target: T47, O6-bS; assay: two-hybrid library CCNG1
# Core_IIII-es_KEKE = molecular target: T48, Core_IIII-es_KEKE; assay: two-hybrid library CCmax; conditions: mean of both orientations
# Core_INNN-es_KEEK = molecular target: T49, Core_INNN-es_KEEK; assay: two-hybrid library CCmax; conditions: mean of both orientations
binder,measurement,setting,value
DENQELEKEIEELERKNWELKKEIQELER [4H1081-bH],interaction score,4H1081-bH,-1.95
same,interaction score,4H112-bH,-1.77
same,interaction score,4H1158-bH,0.0141
same,interaction score,4H118-bH,-1.07
same,interaction score,4H1348-bH,-1.51
same,interaction score,4H1373-bH,-1.35
same,interaction score,4H1544-bH,-1.4
same,interaction score,4H170-bH,-0.0634
same,interaction score,4H1710-bH,-2.01
same,interaction score,4H1831-bH,-1.05
same,interaction score,4H1899-bH,-0.674
same,interaction score,4H1985-bH,-1.01
same,interaction score,4H2586-bH,-2.05
same,interaction score,4H2627-bA,0.747
same,interaction score,4H2627-bH,0.276
same,interaction score,4H2673-bH,-0.0547
same,interaction score,4H2702-bH,1.09
same,interaction score,4H2717-bA,-0.543
same,interaction score,4H3010-bH,-1.02
same,interaction score,4H3112-bH,-0.896
same,interaction score,4H3162-bH,-0.705
same,interaction score,4H3175-bH,-0.0753
same,interaction score,4H3277-bH,-0.363
same,interaction score,4H3298-bH,-0.0402
same,interaction score,4H3427-bH,-0.522
same,interaction score,4H346-bH,0.118
same,interaction score,4H3462-bH,-0.765
same,interaction score,4H3497-bH,-1.2
same,interaction score,4H3613-bH,-1.47
same,interaction score,4H3628-bH,-1.16
same,interaction score,4H3926-bH,1.74
same,interaction score,4H4073-bH,-1.25
same,interaction score,4H457-bH,-0.677
same,interaction score,4H575-bH,-2.22
same,interaction score,4H591-bH,-0.509
same,interaction score,4H626-bH,-0.576
same,interaction score,4H683-bH,-0.574
same,interaction score,4H754-bH,-0.22
same,interaction score,4H780-bH,-0.372
same,interaction score,4H797-bH,-0.717
same,interaction score,4H855-bH,-0.163
same,interaction score,4H906-bH,-0.686
same,interaction score,4H918-bH,-0.0748
same,interaction score,4H953-bH,-0.931
same,interaction score,4H953-bN,-0.336
same,interaction score,4H968-bH,-0.887
same,interaction score,O6-bS,1.86
DEIAALEAKIAALKAEIAALEAKIAALKG [Core_IIII-es_EKEK],interaction score,Core_IIII-es_KEKE,1.11
DEIAALEAKNAALKAKNAALKAENAALEG [Core_INNN-es_EKKE],interaction score,Core_INNN-es_KEEK,1.91
